B1: HESX1 (parent)
chain: QKKDCVPLMKPHRPWADTCSSSGK
B2: CPN1 (parent)
chain: RGVRRTASTPTPDDKLFQKLAKVY

Variants of: B1
Experiment: protein stability index of a GFP-peptide fusion (GPS, HEK-293T) (PSI 1-6); higher = more stable
Settings: c terminus: a fixed tail appended
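Note: lentivirally expressed fusions sorted by FACS into six bins by GFP to DsRed ratio, PSI derived from sequencing read proportions per bin multiplied by bin number.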

Variant	protein stability index
QKMDCVPLMKPHRPWADTCSSSGK [K3M]	3.53
QKTDCVPLMKPHRPWADTCSSSGK [K3T]	3.13
QKVDCVPLMKPHRPWADTCSSSGK [K3V]	3.47
QKFDCVPLMKPHRPWADTCSSSGK [K3F]	4.05
QKLDCVPLMKPHRPWADTCSSSGK [K3L]	3.42
QKIDCVPLMKPHRPWADTCSSSGK [K3I]	3.01
QKDDCVPLMKPHRPWADTCSSSGK [K3D]	3.81
QKGDCVPLMKPHRPWADTCSSSGK [K3G]	3.2
QKHDCVPLMKPHRPWADTCSSSGK [K3H]	3.66
QKQDCVPLMKPHRPWADTCSSSGK [K3Q]	3.06
QKADCVPLMKPHRPWADTCSSSGK [K3A]	3.52
QKNDCVPLMKPHRPWADTCSSSGK [K3N]	3.67
QKYDCVPLMKPHRPWADTCSSSGK [K3Y]	3.06
QKSDCVPLMKPHRPWADTCSSSGK [K3S]	3.69
QKWDCVPLMKPHRPWADTCSSSGK [K3W]	4.36
QKCDCVPLMKPHRPWADTCSSSGK [K3C]	3.27
QKPDCVPLMKPHRPWADTCSSSGK [K3P]	3.62
QKRDCVPLMKPHRPWADTCSSSGK [K3R]	2.92
QMKDCVPLMKPHRPWADTCSSSGK [K2M]	3.24
QFKDCVPLMKPHRPWADTCSSSGK [K2F]	3.46
QGKDCVPLMKPHRPWADTCSSSGK [K2G]	3.06
QYKDCVPLMKPHRPWADTCSSSGK [K2Y]	2.51
QDKDCVPLMKPHRPWADTCSSSGK [K2D]	4.3
QPKDCVPLMKPHRPWADTCSSSGK [K2P]	3.89

Variant	protein stability index
QTKDCVPLMKPHRPWADTCSSSGK [K2T]	3.67
QWKDCVPLMKPHRPWADTCSSSGK [K2W]	2.88
QHKDCVPLMKPHRPWADTCSSSGK [K2H]	3.4
QLKDCVPLMKPHRPWADTCSSSGK [K2L]	3.3
QIKDCVPLMKPHRPWADTCSSSGK [K2I]	3.17
QVKDCVPLMKPHRPWADTCSSSGK [K2V]	3.12
QAKDCVPLMKPHRPWADTCSSSGK [K2A]	3.27
QEKDCVPLMKPHRPWADTCSSSGK [K2E]	4.16
QCKDCVPLMKPHRPWADTCSSSGK [K2C]	4.18
QNKDCVPLMKPHRPWADTCSSSGK [K2N]	3.33
QSKDCVPLMKPHRPWADTCSSSGK [K2S]	3.06
QKKDCVPMMKPHRPWADTCSSSGK [L8M]	3
QKKDCVPTMKPHRPWADTCSSSGK [L8T]	2.82
QKKDCVPQMKPHRPWADTCSSSGK [L8Q]	4.1
QKKDCVPRMKPHRPWADTCSSSGK [L8R]	2.59
QKKDCVPIMKPHRPWADTCSSSGK [L8I]	2.82
QKKDCVPEMKPHRPWADTCSSSGK [L8E]	3.58
QKKDCVPCMKPHRPWADTCSSSGK [L8C]	2.7
QKKDCVPSMKPHRPWADTCSSSGK [L8S]	3.86
QKKDCVPFMKPHRPWADTCSSSGK [L8F]	3.14
QKKDCVPKMKPHRPWADTCSSSGK [L8K]	3.73
QKKDCVPAMKPHRPWADTCSSSGK [L8A]	3.29
QKKDCVPHMKPHRPWADTCSSSGK [L8H]	2.31
QKKDCVPVMKPHRPWADTCSSSGK [L8V]	3.28

Variant	protein stability index
QKKDCVPGMKPHRPWADTCSSSGK [L8G]	3.18
QKKDCVPDMKPHRPWADTCSSSGK [L8D]	3.93
QKKDCVPNMKPHRPWADTCSSSGK [L8N]	3.19
QKKDCVPPMKPHRPWADTCSSSGK [L8P]	3.49
SKKDCVPLMKPHRPWADTCSSSGK [Q1S]	3.49
PKKDCVPLMKPHRPWADTCSSSGK [Q1P]	3.66
EKKDCVPLMKPHRPWADTCSSSGK [Q1E]	3.98
FKKDCVPLMKPHRPWADTCSSSGK [Q1F]	3.17
NKKDCVPLMKPHRPWADTCSSSGK [Q1N]	3.22
IKKDCVPLMKPHRPWADTCSSSGK [Q1I]	3.46
YKKDCVPLMKPHRPWADTCSSSGK [Q1Y]	2.45
WKKDCVPLMKPHRPWADTCSSSGK [Q1W]	2.69
KKKDCVPLMKPHRPWADTCSSSGK [Q1K]	3.06
MKKDCVPLMKPHRPWADTCSSSGK [Q1M]	3.03
CKKDCVPLMKPHRPWADTCSSSGK [Q1C]	2.94
AKKDCVPLMKPHRPWADTCSSSGK [Q1A]	2.76
TKKDCVPLMKPHRPWADTCSSSGK [Q1T]	3.4
GKKDCVPLMKPHRPWADTCSSSGK [Q1G]	4.01
LKKDCVPLMKPHRPWADTCSSSGK [Q1L]	2.01
DKKDCVPLMKPHRPWADTCSSSGK [Q1D]	3.95
RKKDCVPLMKPHRPWADTCSSSGK [Q1R]	3.74
HKKDCVPLMKPHRPWADTCSSSGK [Q1H]	3.86
QKKPCVPLMKPHRPWADTCSSSGK [D4P]	2.86
QKKHCVPLMKPHRPWADTCSSSGK [D4H]	3.08

Variant	protein stability index
QKKGCVPLMKPHRPWADTCSSSGK [D4G]	3.05
QKKVCVPLMKPHRPWADTCSSSGK [D4V]	2.17
QKKLCVPLMKPHRPWADTCSSSGK [D4L]	2.38
QKKMCVPLMKPHRPWADTCSSSGK [D4M]	2.12
QKKICVPLMKPHRPWADTCSSSGK [D4I]	3.25
QKKWCVPLMKPHRPWADTCSSSGK [D4W]	2.39
QKKACVPLMKPHRPWADTCSSSGK [D4A]	2.87
QKKCCVPLMKPHRPWADTCSSSGK [D4C]	2.38
QKKRCVPLMKPHRPWADTCSSSGK [D4R]	2.43
QKKFCVPLMKPHRPWADTCSSSGK [D4F]	2.61
QKKNCVPLMKPHRPWADTCSSSGK [D4N]	3.24
QKKSCVPLMKPHRPWADTCSSSGK [D4S]	2.92
QKKKCVPLMKPHRPWADTCSSSGK [D4K]	2.89
QKKYCVPLMKPHRPWADTCSSSGK [D4Y]	2.72
QKKQCVPLMKPHRPWADTCSSSGK [D4Q]	3.54
QKKTCVPLMKPHRPWADTCSSSGK [D4T]	2.49
QKKDCIPLMKPHRPWADTCSSSGK [V6I]	3.03
QKKDCAPLMKPHRPWADTCSSSGK [V6A]	4.1
QKKDCEPLMKPHRPWADTCSSSGK [V6E]	4.38
QKKDCRPLMKPHRPWADTCSSSGK [V6R]	2.88
QKKDCMPLMKPHRPWADTCSSSGK [V6M]	3.05
QKKDCNPLMKPHRPWADTCSSSGK [V6N]	3.98
QKKDCLPLMKPHRPWADTCSSSGK [V6L]	2.92
QKKDCWPLMKPHRPWADTCSSSGK [V6W]	3.08

Variant	protein stability index
QKKDCDPLMKPHRPWADTCSSSGK [V6D]	3.11
QKKDCTPLMKPHRPWADTCSSSGK [V6T]	3.92
QKKDCFPLMKPHRPWADTCSSSGK [V6F]	3.28
QKKDCYPLMKPHRPWADTCSSSGK [V6Y]	3.01
QKKDCQPLMKPHRPWADTCSSSGK [V6Q]	2.98
QKKDCCPLMKPHRPWADTCSSSGK [V6C]	3.1
QKKDCGPLMKPHRPWADTCSSSGK [V6G]	3.46
QKKDCHPLMKPHRPWADTCSSSGK [V6H]	3.17
QKKDCSPLMKPHRPWADTCSSSGK [V6S]	3.4
QKKDCPPLMKPHRPWADTCSSSGK [V6P]	3.31
QKKDCKPLMKPHRPWADTCSSSGK [V6K]	2.57
QKKDCVKLMKPHRPWADTCSSSGK [P7K]	2.8
QKKDCVHLMKPHRPWADTCSSSGK [P7H]	2.92
QKKDCVNLMKPHRPWADTCSSSGK [P7N]	3.07
QKKDCVALMKPHRPWADTCSSSGK [P7A]	2.79
QKKDCVMLMKPHRPWADTCSSSGK [P7M]	3.17
QKKDCVQLMKPHRPWADTCSSSGK [P7Q]	3.34
QKKDCVCLMKPHRPWADTCSSSGK [P7C]	2.74
QKKDCVLLMKPHRPWADTCSSSGK [P7L]	2.68
QKKDCVILMKPHRPWADTCSSSGK [P7I]	2.44
QKKDCVFLMKPHRPWADTCSSSGK [P7F]	2.07
QKKDCVYLMKPHRPWADTCSSSGK [P7Y]	2.78
QKKDCVRLMKPHRPWADTCSSSGK [P7R]	2.46
QKKDCVVLMKPHRPWADTCSSSGK [P7V]	2.56

Variant	protein stability index
QKKDCVTLMKPHRPWADTCSSSGK [P7T]	2.7
QKKDCVDLMKPHRPWADTCSSSGK [P7D]	3.93
QKKDCVWLMKPHRPWADTCSSSGK [P7W]	1.76
QKKDCVSLMKPHRPWADTCSSSGK [P7S]	3.38
QKKDEVPLMKPHRPWADTCSSSGK [C5E]	4.15
QKKDPVPLMKPHRPWADTCSSSGK [C5P]	3.17
QKKDHVPLMKPHRPWADTCSSSGK [C5H]	3.83
QKKDAVPLMKPHRPWADTCSSSGK [C5A]	3.08
QKKDYVPLMKPHRPWADTCSSSGK [C5Y]	3.38
QKKDTVPLMKPHRPWADTCSSSGK [C5T]	3.2
QKKDFVPLMKPHRPWADTCSSSGK [C5F]	3.38
QKKDSVPLMKPHRPWADTCSSSGK [C5S]	3.4
QKKDRVPLMKPHRPWADTCSSSGK [C5R]	4.16
QKKDGVPLMKPHRPWADTCSSSGK [C5G]	2.62
QKKDNVPLMKPHRPWADTCSSSGK [C5N]	3.06
QKKDQVPLMKPHRPWADTCSSSGK [C5Q]	2.49
QKKDLVPLMKPHRPWADTCSSSGK [C5L]	3.59
QKKDDVPLMKPHRPWADTCSSSGK [C5D]	3.57
QKKDIVPLMKPHRPWADTCSSSGK [C5I]	2.51
QKKDWVPLMKPHRPWADTCSSSGK [C5W]	3.34
QKKDKVPLMKPHRPWADTCSSSGK [C5K]	2.81
QKKDMVPLMKPHRPWADTCSSSGK [C5M]	3.19
QKKDVVPLMKPHRPWADTCSSSGK [C5V]	3.78

Variants of: B2
Experiment: as above
Settings: c terminus: a fixed tail appended

Variant	protein stability index
RGVRRTASTPTPDDKLFQKLAKNY [V23N]	3.73
RGVRRTASTPTPDDKLFQKLAKPY [V23P]	3.51
RGVRRTASTPTPDDKLFQKLAKRY [V23R]	3.84
RGVRRTASTPTPDDKLFQKLAKDY [V23D]	3.02
RGVRRTASTPTPDDKLFQKLAKIY [V23I]	2.27
RGVRRTASTPTPDDKLFQKLAKYY [V23Y]	1.9
RGVRRTASTPTPDDKLFQKLAKHY [V23H]	2.78
RGVRRTASTPTPDDKLFQKLAKQY [V23Q]	3.44
RGVRRTASTPTPDDKLFQKLAKAY [V23A]	2.45
RGVRRTASTPTPDDKLFQKLAKCY [V23C]	2.58
RGVRRTASTPTPDDKLFQKLAKEY [V23E]	3.84
RGVRRTASTPTPDDKLFQKLAKKY [V23K]	2.96
RGVRRTASTPTPDDKLFQKLAKTY [V23T]	2.4
RGVRRTASTPTPDDKLFQKLAKWY [V23W]	1.92
RGVRRTASTPTPDDKLFQKLAKGY [V23G]	3.09
RGVRRTASTPTPDDKLFQKLAKLY [V23L]	2.18
RGVRRTASTPTPDDKLFQKLAKMY [V23M]	1.9
RGVRRTASTPTPDDKLFQKLAKFY [V23F]	1.64
RGVRRTASTPTPDDKLFQKLAKSY [V23S]	2.7
RGVRRTASTPTPDDKLFQKLAQVY [K22Q]	1.7
RGVRRTASTPTPDDKLFQKLAWVY [K22W]	2.19
RGVRRTASTPTPDDKLFQKLAVVY [K22V]	2.14
RGVRRTASTPTPDDKLFQKLASVY [K22S]	1.93

Variant	protein stability index
RGVRRTASTPTPDDKLFQKLAYVY [K22Y]	1.97
RGVRRTASTPTPDDKLFQKLATVY [K22T]	1.96
RGVRRTASTPTPDDKLFQKLARVY [K22R]	2.07
RGVRRTASTPTPDDKLFQKLAKVF [Y24F]	1.95
RGVRRTASTPTPDDKLFQKLAKVA [Y24A]	2.51
RGVRRTASTPTPDDKLFQKLAKVT [Y24T]	3.64
RGVRRTASTPTPDDKLFQKLAKVM [Y24M]	1.66
RGVRRTASTPTPDDKLFQKLAKVH [Y24H]	3.1
RGVRRTASTPTPDDKLFQKLAKVL [Y24L]	2.49
RGVRRTASTPTPDDKLFQKLAKVC [Y24C]	2.22
RGVRRTASTPTPDDKLFQKLAKVN [Y24N]	3.33
RGVRRTASTPTPDDKLFQKLAKVS [Y24S]	2.72
RGVRRTASTPTPDDKLFQKLAKVG [Y24G]	3
RGVRRTASTPTPDDKLFQKLAKVQ [Y24Q]	2.92
RGVRRTASTPTPDDKLFQKLAKVD [Y24D]	3.48
RGVRRTASTPTPDDKLFQKLAKVV [Y24V]	2.7
RGVRRTASTPTPDDKLFQKLAKVI [Y24I]	2.6
RGVRRTASTPTPDDKLFQKLAKVK [Y24K]	3.95
RGVRRTASTPTPDDKLFQKLAKVW [Y24W]	1.98
RGVRRTASTPTPDDKLFQKLAKVR [Y24R]	2.29
RGVRRTASTPTPDDKLFQKLAKVP [Y24P]	2.72
RGVRRTASTPTPDDKLFQKLAKVE [Y24E]	3.49

Reference: the supplement of paper PMC10567573
